From US10143748B2, “B-cell reduction using CD37-specific and CD20-specific binding molecules” (Emergent Product Development Seattle, LLC, priority 2005, dated 2018)
“Also recorded” adds a separate entry of the source.

What was measured:
[1] = target: T1, CD37 cell surface receptor (Homo sapiens, UniProt P11049); experiment: TRU-016 binding to human PBMC, two-color flow cytometry
T1 construct: Human PBMCs were isolated over LSM density gradients and incubated with unconjugated TRU-016; endogenous in cells; host or cells: human PBMC (CD19-positive B lymphocyte gate)
T1 sequence (P11049 1-281): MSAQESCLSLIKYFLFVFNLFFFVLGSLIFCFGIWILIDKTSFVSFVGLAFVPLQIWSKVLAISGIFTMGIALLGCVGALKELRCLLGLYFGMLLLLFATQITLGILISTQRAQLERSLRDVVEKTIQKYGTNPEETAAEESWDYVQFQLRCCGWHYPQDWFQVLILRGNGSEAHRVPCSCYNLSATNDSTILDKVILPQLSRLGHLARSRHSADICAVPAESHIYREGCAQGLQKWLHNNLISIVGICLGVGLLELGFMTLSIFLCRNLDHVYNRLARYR
Procedure: Experiments were also performed to determine that the binding specificity of the parent antibody to the CD37 cell surface receptor is preserved in TRU-016. Human PBMCs were isolated over LSM density gradients and incubated with unconjugated TRU-016 and PE-conjugated anti-human CD19. Cells were washed and incubated with 1:100 FITC GAH IgG (Fc specific) for 45 minutes on ice. Cells were washed and analyzed by two-color flow cytometry on a FACsCalibur instrument using Cell Quest software. Cells were gated for B lymphocytes or non-B lymphocytes by CD19 staining.
With increasing concentrations of TRU-016, the FITC signal on the B lymphocyte (CD19 positive gate) increased rapidly from 0.01-1.0 μg/ml, until it reached saturation at approximately 1 μg/mL or a mean fluorescence intensity (MFI) of 1000. […] Thus, the staining pattern of the G28-1 murine monoclonal antibody is preserved with TRU-016 (FIG. 1C).

[2] = system: CD19+ primary CLL B cells; experiment: tyrosine phosphorylation, 2D gel anti-phosphotyrosine immunoblot; type: cell-based, human; details: 5 ug/ml, 10 minutes, then crosslinker 25 ug/ml 5 minutes, FIG. 29
Procedure: Freshly isolated CD19+ cells (−50−100×106) from CLL patients were suspended at a concentration of 5×10^6/ml PBS. Cells were then incubated for 10 minutes at 37° C., 5% CO2, with control, trastuzumab (herceptin), or TRU-016 at a final concentration of 5 ug/ml. Cells were spun down, supernatant was removed, and cells were resuspended in fresh PBS of initial volume. Goat anti-human Fc fragment specific crosslinker (25 ug/ml) was added and cells were incubated for an additional 5 minutes. Cells were again spun down, supernatant was removed, and cells were lysed in 1 ml of RIPA lysis buffer with protease and phosphatase inhibitors (10 mM Tris, ph7.4, 150 mM NaCl,1% Triton X-100, 1% deoxycholic acid, 0.1% SDS and 5 mM EDTA all final concentrations. Sigma protease inhibitor cocktail cat#P-8340; Sigma phosphatase inhibitor cocktail: serine/threonine phosphatase inhibitor cocktail pat#P-2850; and tyrosine phosphatase inhibitor cat#P-5726;PMSF (100 mM) were all used. The inhibitors were added to the lysis buffer immediately prior to use at a 1:100 dilution. Protein concentration in the lysates was quantified by the bicin choninic acid (BCA) method (Pierce, Rockford, Ill.). The control arid treated protein samples (SOug total protein) were separated by two-dimensional gel electrophoresis (pH Range 3-10) (1st Dimension) and 10% SDS-PAGE (2nd Dimension). […]

[3] = system: Daudi tumors; experiment: Daudi tumor xenograft in nude mice; type: in vivo, mouse
Procedure: Ramos and Daudi tumor cells were separately grown and (5×10^6) cells were injected subcutaneously in the right flank of mice to initiate the formation of mouse tumor xenografts. After tumor development, mice were sorted into groups based on tumor size/volume (day 0). […] Tumor volume was blindly measured three times weekly with calipers until completion of the experiment (sacrifice or regression).

[4] = target: T2, CD37 (Homo sapiens, UniProt P11049); experiment: competitive binding / FACs cross blocking of FITC anti-CD37 reagents on BJAB cells; design: BJAB-cells, a B lymphoblastoid B-cell line, (courtesy of Ed Clark, University of Washington); endogenous in cells; host or cells: BJAB B lymphoblastoid cell line; details: unlabeled blocking reagent, FIG. 2
T2 sequence (P11049 1-281): T1 sequence (P11049 1-281)
Procedure: FITC labeled antibody conjugates were titrated from 10 μg/mL to 10 pg/mL in an initial binding study to determine the optimal amounts to use in the blocking studies. The level chosen was just below saturating amounts, and was kept constant in the subsequent assays, while levels of blocking antibody were increased over a 10-fold range. Data were plotted as percent of maximal binding versus concentration of blocking antibody, so that higher levels indicate less efficient blocking, while lower levels indicate more efficient blocking activity.
BJAB-cells, a B lymphoblastoid B-cell line, (courtesy of Ed Clark, University of Washington) were then stained with a panel of various clones of anti-CD37 MAbs, including MB371, BL14, NMN46, IPO24, HH1, WR17, and the TRU-016 SMIP.
For competitive binding assays, 2.5×10^5 BJAB cells were incubated in 96-well V-bottom plates in staining media (PBS with 2% mouse sera) with the FITC-conjugated anti-CD37 MAbs at 1.25 μg/mL in the presence of unconjugated anti-CD37 MAb at the indicated concentrations (2.5, 1.25, 0.6, or 0.3 μg/ml) or staining media for 45 minutes on ice in the dark. Blocking antibodies and FITC labeled antibody conjugates were added to reactions prior to addition of cells. […] The cells were analyzed by flow cytometry using a FACsCalibur instrument and CellQuest software (BD Biosciences, San Jose, Calif.). […]

[5] = established Daudi tumors, 100 μg

**Q.** For “G28-1 scFv VH11S(SSC—P)H WCH2 WCH3 [TRU-016]”, which “mean fluorescence intensity (MFI) at saturation” value ([1]; B lymphocyte (CD19 positive gate)) is on record?
**A.** 1000

**Q.** What about the “staining of / binding to the non-B lymphocyte population” value ([1]; CD19 negative gate) of the same substance?
**A.** much lower level of binding; also recorded: detectable, but very low

**Q.** What about the “binding to human peripheral blood B lymphocytes” value ([1]; flow cytometry, FIG. 1C) of the same substance?
**A.** high level, specific binding

**Q.** And the “concentration at which FITC signal on B lymphocytes (CD19 positive gate) reached saturation” value ([1]; human PBMC, FITC GAH IgG detection)?
**A.** approximately 1 μg/mL

**Q.** And the tyrosine phosphorylation [2]?
**A.** induced tyrosine phosphorylation

**Q.** What about the survival time ([3]; Daudi tumor xenograft, FIGS. 25 and 26) of the same substance?
**A.** more effective than rituximab in maintaining survival; also recorded: significantly enhanced survival time compared to the control group; also recorded: statistically significant increase in median survival time

**Q.** What about the “Median Survival Time” value [3, 5] of the same substance?
**A.** 24 days

**Q.** What about the “Percentage of Tumor Free Mice at Day 90” value [3, 5] of the same substance?
**A.** 25%

**Q.** And the “blocking activity (inhibition of binding of FITC anti-CD37 conjugates)” value [4]?
**A.** highest level of blocking activity
